{"source": "FireProtDB (doi:10.1021/bi201411c)", "conditions": "Nostoc ellipsosporum, pH 6, 25 °C, GdnHCl, sodium phosphate 20 mM, transition: 2, reversible: yes(90%), whole UniProt chain shown", "data": [{"protein": "Cyanovirin-N wild type, P81180 (protein) LGKFSQTCYNSAIQGSVLTSTCERTNGGYNTSSIDLNSVIENVDGSLKWQPSNFIETCRNTQLAGSSELAAECKTRAQQFVSTKINLDDHIANIDGTLKYE", "values": [{"measurement": "denaturant m value", "setting": "CD", "result": 2, "unit": "kcal/mol/M"}, {"measurement": "denaturant midpoint (higher = more stable)", "setting": "CD", "result": 2.5, "unit": "M"}, {"measurement": "denaturant m value", "setting": "fluorescence", "result": 1.9, "unit": "kcal/mol/M"}, {"measurement": "denaturant midpoint (higher = more stable)", "setting": "fluorescence", "result": 2.6, "unit": "M"}]}]}
